Experimental data from publication PMC12651572 (Cells, 2025).

How the values were obtained:
Experiment in all cases: ELISA; recombinant human antigen coated at 1 μg/mL on Maxisorp plate overnight; antibodies 2 h at room temperature with shaking; HRP anti-human IgG, TMB, OD 450 nm; EC50 by 4PL fit
Conditions in all cases: both partners purified
[1] = target: T1, Recombinant human TSLP (thymic stromal lymphopoietin) (Homo sapiens, UniProt Q969D9)
T1 construct: thymic stromal lymphopoietin, human, recombinant; The reporter and T cell assays used other lots of recombinant human TSLP (R&D Systems for the reporter assay); source: bought: AcroBiosystems

[2] = target: T2, Recombinant human IL-4Rα/IL-13Rα1 receptor complex (Homo sapiens, UniProt P24394;P78552)
T2 construct: interleukin-4 receptor subunit alpha, human, recombinant; interleukin-13 receptor subunit alpha-1, human, recombinant; source: bought: AcroBiosystems

[3] = target: T3, Recombinant human IL-4Rα (IL-4 receptor alpha chain) (Homo sapiens, UniProt P24394)
T3 construct: interleukin-4 receptor subunit alpha, human, recombinant; source: bought: AcroBiosystems

binding result [1]: no binding
EC50 [2]: 0.19 nM
EC50 [3]: ~0.76 nM
B1: IL4R-dupi parental anti-IL-4Rα antibody (dupilumab Fab arms on IgG1 Fc with K409R) (antibody, V domains shown)
VH: EVQLVESGGGLEQPGGSLRLSCAGSGFTFRDYAMTWVRQAPGKGLEWVSSISGSGGNTYYADSVKGRFTISRDNSKNTLYLQMNSLRAEDTAVYYCAKDRLSITIRPRYYGLDVWGQGTTVTVSS
VL: DIVMTQSPLSLPVTPGEPASISCRSSQSLLYSIGYNYLDWYLQKSGQSPQLLIYLGSNRASGVPDRFSGSGSGTDFTLKISRVEAEDVGFYYCMQALQTPYTFGQGTKLEIK
notes: variable region of the dupilumab heavy chain; CH1 and hinge are not described; dupilumab light chain; IgG1; Not the dupilumab analogue with native IgG4 Fc, which was used in the mouse study and the FcRn ELISA; also called IL4R-dupi parental antibody; bivalent IL4R-dupi; source: Expi293F, transiently co-transfected, purified (MabSelect SuRe)
